B1: CD95 immunoadhesin (Fc fusion, UniProt P25445 26-173, looked up)
chain: QVTDINSKGLELRKTVTTVETQNLEGLHHDGQFCHKPCPPGERKARDCTVNGDEPDCVPCQEGKEYTDKAHFSSKCRRCRLCDEGHGLEVEINCTRTQNTKCRCKPNFFCNSTVCEHCDPCTKCEHGIIKECTLTSNTKCKEEGSRSN
notes: extracellular domain; also called CD95-IgG; Fas-IgG; not shown: hinge and Fc portion of human IgG; made as described for TNFR1 in Ashkenazi et al. 1991 (IgG1 from)
B2: PRO364-IgG (soluble immunoglobulin fusion protein of the PRO364 extracellular domain) (Fc fusion)
chain: QRPTGGPGCGPGRLLLGTGTDARCCRVHTTRCCRDYPGEECCSEWDCMCVQPEFHCGDPCCTTCRHHPCPPGQGVQSQGKFSFGFQCIDCASGTFSGGHEGHCKPWTDCTQFGFLTVFPGNKTHNAVCVPGSPPAE
notes: Expressed in insect cells with Baculovirus; also called PRO364 immunoadhesin; PRO364 ECD C-terminus IgG-Fc tagged form; not shown: IgG-Fc at the C-terminus
B3: full-length PRO175 polypeptide on cells (ligand)
chain: MCLSHLENMPLSHSRTQGAQRSSWKLWLFCSIVMLLFLCSFSWLIFIFLQLETAKEPCMAKFGPLPSKWQMASSEPPCVNKVSDWKLEILQNGLYLIYGQVAPNANYNDVAPFEVRLYKNKDMIQTLTNKSKIQNVGGTYELHVGDTIDLIFNSEHQVLKNNTYWGIILLANPQFIS
notes: Human 293 cells were transiently transfected with full-length PRO175, co-transfected with CD4 for gating; also called PRO175 on transfected 293 cells; PRO175 on HUVEC
B4: soluble PRO175 polypeptide (PRO175 ECD, E. coli, Met-Gly-His10-enterokinase-site tagged) (ligand)
chain: MGHHHHHHHHHHSSGHIDDDDKHMETAKEPCMAKFGPLPSKWQMASSEPPCVNKVSDWKLEILQNGLYLIYGQVAPNANYNDVAPFEVRLYKNKDMIQTLTNKSKIQNVGGTYELHVGDTIDLIFNSEHQVLKNNTYWGIILLANPQFIS
modifications: labeled with 125I (residues not stated)
notes: also called soluble PRO175 ECD molecule; radioiodinated soluble PRO175 polypeptide

In test [1] the target is B3. Description: FACS on HUVEC (endogenous PRO175). As to the method: (§1) The PRO175 polypeptide was identified in a human umbilical vein endothelial cell (HUVEC) library, and the PRO175 polypeptide transcripts are readily detectable in HUVEC by RT-PCR (data not shown). […] HUVEC were purchased from Cell Systems (Kirkland, Wash.) and grown in a 50:50 mix of Ham=s F 12 and Low Glucose DMEM media containing 10% fetal bovine serum, 2 mM L-glutamine, 10 mM Hepes, and 10 ng/ml basic FGF. Cells were FACS sorted with PBS, PRO364-IgG, TNFR1-IgG or Fas-IgG as a primary antibody and goat anti-human F(ab=)₂ conjugated to phycoerythrin (CalTag, Burlingame, Calif.).

For test [2], the target named is B3. The test can be described thus: FACS on 293 cells transiently transfected with full-length PRO175. On the procedure:
In another assay, human 293 cells were transiently transfected with full-length PRO175 and the ability of receptor immunoadhesin constructs for PRO364, TNFR1, HVEM, and DcR1 to bind to those transfected cells was determined by FACS analysis. The 293 cells were maintained in high glucose DMEM media supplemented with 10% fetal bovine serum (FBS), 2 mM glutamine, 100 microgram/ml penicillin, and 100 microgram/ml streptomycin. The transfected cells ([…]) were incubated for 60 minutes at 4° C. in 200 microliters 2% FBS/PBS with 1 microgram of the respective receptor or ligand immunoadhesin. The cells were then washed with 2% FBS/PBS, stained with R-phycoerythrin-conjugated goat anti-human antibody (Jackson Immunoresearch, West Grove, Pa.). Next, the cells were analyzed by FACS. To test the binding of the respective immunoadhesins to the transiently transfected cells, an expression vector (pRK5-CD4; Smith et al., Science, 328:1704-1707 (1987)) for CD4 was co-transfected with PRO175 expression vector (see above). FITC-conjugated anti-CD4 (Pharmingen, San Diego, Calif.) was then used to identify and gate the transfected cell population in the FACS analysis.

The target in test [3] is T1, TNFR1 immunoadhesin (human, UniProt P19438 30-211, limits assumed).
T1 construct: extracellular domain; also called TNFR1-IgG; TNFR 1-IgG; not shown: hinge and Fc portion of human IgG
T1 sequence (looked up): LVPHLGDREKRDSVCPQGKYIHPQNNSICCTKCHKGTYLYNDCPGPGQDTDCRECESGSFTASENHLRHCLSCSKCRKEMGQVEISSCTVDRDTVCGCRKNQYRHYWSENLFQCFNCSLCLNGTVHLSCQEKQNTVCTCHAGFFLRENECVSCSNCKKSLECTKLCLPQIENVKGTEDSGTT
The test can be described thus: FACS on HUVEC (endogenous PRO175). On the procedure:
as §1

Test [4] has as its target T2, DR4 immunoadhesin (human, UniProt O00220 24-239, limits assumed).
T2 construct: extracellular domain; also called DR4-IgG; not shown: hinge and Fc portion of human IgG; made as described for TNFR1 in Ashkenazi et al. 1991 (IgG1 from)
T2 sequence (looked up): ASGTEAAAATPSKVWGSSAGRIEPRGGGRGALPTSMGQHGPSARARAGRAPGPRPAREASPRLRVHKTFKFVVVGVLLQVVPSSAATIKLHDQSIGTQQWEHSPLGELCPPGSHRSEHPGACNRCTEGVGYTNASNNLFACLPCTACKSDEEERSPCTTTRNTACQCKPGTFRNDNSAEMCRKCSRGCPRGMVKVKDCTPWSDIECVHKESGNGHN
The test can be described thus: co-precipitation with protein A-sepharose, SDS-PAGE, autoradiography. On the procedure: (§2) The soluble PRO175 ECD molecule was abeled with ¹²⁵I, for testing its ability to interact with the PRO364 immunoadhesin. For comparison, immunoadhesin constructs were also made of the following TNF receptor family members: CD95, DR4, DR5, TNFR1, TNFR2, and Apo-3. CD95, DR4, DR5, TNFR1, TNFR2, and Apo-3 immunoadhesins were prepared by fusing each receptor's ECD to the hinge and Fc portion of human IgG, as described previously for TNFR1 [Ashkenazi et al., Proc. Natl. Acad. Sci., 88:10535-10539 (1.991)]. The respective TNF receptor family members are described (and relevant references cited) in the Background of the Invention section.
(§3) For the co-precipitation assay, each immunoadhesin (5 microgram) was incubated with ¹²⁵I-labeled soluble PRO175 polypeptide (I microgram) for 1 hour at 24° C., followed by protein A-sepharose for 30 minutes on ice. The reaction mixtures were spun down and washed several times in PBS, boiled in SDS-PAGE buffer containing 20 mM dithiothreitol and then resolved by SDS-PAGE and autoradiography.

The target in test [5] is T3, TNFR2 immunoadhesin (human, UniProt P20333 23-257, limits assumed).
T3 construct: extracellular domain; also called TNFR2-IgG; not shown: hinge and Fc portion of human IgG; made as described for TNFR1 in Ashkenazi et al. 1991 (IgG1 from)
T3 sequence (looked up): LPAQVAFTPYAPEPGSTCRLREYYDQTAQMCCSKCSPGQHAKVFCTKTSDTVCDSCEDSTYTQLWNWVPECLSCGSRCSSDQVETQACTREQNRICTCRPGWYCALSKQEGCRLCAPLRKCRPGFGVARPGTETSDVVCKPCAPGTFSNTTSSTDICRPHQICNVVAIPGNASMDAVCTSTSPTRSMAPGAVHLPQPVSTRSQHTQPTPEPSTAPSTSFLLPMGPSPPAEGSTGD
The description is as above. On the procedure: as §2, §3

The target in test [6] is B1. The test is described as above. On the procedure: as §2, §3
In test [7] the target is T4, DR5 immunoadhesin (human, UniProt O14763 56-210, limits assumed).
T4 construct: extracellular domain; also called DR5-IgG; Apo-2; not shown: hinge and Fc portion of human IgG; made as described for TNFR1 in Ashkenazi et al. 1991 (IgG1 from)
The description is as above. As to the method:
as §2, §3

The target in test [8] is T1, TNFR1 immunoadhesin. The test is described as above. As to the method:
as §2, §3

Test [9] addresses T5, Apo-3 immunoadhesin (human, UniProt Q93038 25-199).
T5 construct: extracellular domain; also called Apo-3-IgG; DR3; not shown: hinge and Fc portion of human IgG; made as described for TNFR1 in Ashkenazi et al. 1991 (IgG1 from)
T5 sequence (looked up): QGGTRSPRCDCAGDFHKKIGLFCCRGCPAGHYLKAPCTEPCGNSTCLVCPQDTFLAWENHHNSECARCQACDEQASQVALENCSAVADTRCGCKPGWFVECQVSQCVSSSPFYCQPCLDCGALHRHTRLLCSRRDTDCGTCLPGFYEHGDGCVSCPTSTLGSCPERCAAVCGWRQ
The description is as above. As to the method: as §2, §3

As to B1, the binding result in test [1] was “no binding”.

With B2, the binding result in [2] is “binds”.

As for B3, in [3], the binding result was “no binding”.

For B4, the binding result in test [4], in [5], in test [6], in test [7], in [8] and in [9] was “no binding” in each case.

The record behind these values is patent US20050202008A1 (Genentech, published 2005).
